# T1: Centromere B (UniProt P07199 1-599)
# T1 construct: also called Cent B
# T1 sequence: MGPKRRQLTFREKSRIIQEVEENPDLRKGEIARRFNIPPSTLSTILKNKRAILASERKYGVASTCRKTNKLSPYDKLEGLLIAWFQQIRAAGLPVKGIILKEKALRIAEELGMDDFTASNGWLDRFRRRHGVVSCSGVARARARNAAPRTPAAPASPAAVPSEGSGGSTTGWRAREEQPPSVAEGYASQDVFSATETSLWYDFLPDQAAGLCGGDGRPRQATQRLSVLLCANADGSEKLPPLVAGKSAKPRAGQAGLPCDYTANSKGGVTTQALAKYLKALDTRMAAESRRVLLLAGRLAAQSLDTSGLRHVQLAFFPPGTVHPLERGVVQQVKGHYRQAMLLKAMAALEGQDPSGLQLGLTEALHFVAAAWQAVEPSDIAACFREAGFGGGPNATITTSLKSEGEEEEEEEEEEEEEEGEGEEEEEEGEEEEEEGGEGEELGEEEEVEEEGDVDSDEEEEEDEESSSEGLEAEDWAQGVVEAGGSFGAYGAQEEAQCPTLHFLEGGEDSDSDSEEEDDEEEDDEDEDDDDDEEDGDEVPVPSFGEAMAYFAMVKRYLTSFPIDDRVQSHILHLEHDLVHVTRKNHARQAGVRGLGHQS
# Tests used:
# CH505.TF mutant gp120 M6 [1] = target: T2, CH505.TF mutant gp120 M6 (HIV-1); assay: direct-binding ELISA (OD450), panel 'CH505.TF gp120 M6'
# T2 construct: domain: gp120
# CH505w136.B18D8gp120 = assay: ELISA
# [2] = target: T3, CH505.TF mutant gp120 M20 (HIV-1); assay: ELISA
# T3 construct: domain: gp120
# CH505.M21D8gp120/293F = assay: ELISA
# CH505.M5D8gp120293F = assay: ELISA
# CH505.M10D8gp120 = assay: ELISA
# CH505.TF mutant gp120 M6 [3] = target: T2, CH505.TF mutant gp120 M6; assay: ELISA
# CH505.M9D8gp120/293F = assay: ELISA
# CH505.M7D8gp120/293F = assay: ELISA
# CH505.M19D8gp120 = assay: ELISA
# CH505.M11D8gp120/293F = assay: ELISA
# CH505.TF mutant gp120 M8 = target: T4, CH505.TF mutant gp120 M8 (HIV-1); assay: ELISA
# T4 construct: domain: gp120
# CH505.TF gp120 delta371I = assay: direct-binding ELISA (OD450), panel 'CH505.TF gp120 delta371I'
# Centromere B [4] = target: T1, Centromere B; assay: AtheNA, Ab 50 ug/ml
# From the text: (§1) AtheNA Multi-Lyte ANA Plus Test System is one such assay. This is luminex-based assay, which is also used to screen patient sera.
# Histones [5] = target: T5, Histones; assay: AtheNA, Ab 50 ug/ml
# T5 construct: Mixture of proteins
# From the text: as §1
# RNP (ribonucleoprotein) [6] = target: T6, RNP (ribonucleoprotein); assay: AtheNA, Ab 50 ug/ml
# T6 construct: Protein-RNA complex
# From the text: as §1
# SSA [7] = target: T7, SSA; assay: AtheNA, Ab 50 ug/ml
# T7 construct: also called SSA (Ro)
# From the text: as §1
# Sm (Smith antigen) [8] = target: T8, Sm (Smith antigen); assay: AtheNA, Ab 50 ug/ml
# T8 construct: Protein complex
# From the text: as §1
# Con S gp120 = assay: direct-binding ELISA (OD450), panel 'Con S gp120'
# Centromere B [9] = target: T1, Centromere B; assay: AtheNA, Ab 6.25 ug/ml
# From the text: as §1
# Histones [10] = target: T5, Histones; assay: AtheNA, Ab 6.25 ug/ml
# From the text: as §1
# RNP (ribonucleoprotein) [11] = target: T6, RNP (ribonucleoprotein); assay: AtheNA, Ab 6.25 ug/ml
# From the text: as §1
# SSA [12] = target: T7, SSA; assay: AtheNA, Ab 6.25 ug/ml
# From the text: as §1
# Sm (Smith antigen) [13] = target: T8, Sm (Smith antigen); assay: AtheNA, Ab 6.25 ug/ml
# From the text: as §1
# Centromere B [14] = target: T1, Centromere B; assay: AtheNA, Ab 12.5 ug/ml
# From the text: as §1
# Histones [15] = target: T5, Histones; assay: AtheNA, Ab 12.5 ug/ml
# From the text: as §1
# RNP (ribonucleoprotein) [16] = target: T6, RNP (ribonucleoprotein); assay: AtheNA, Ab 12.5 ug/ml
# From the text: as §1
# SSA [17] = target: T7, SSA; assay: AtheNA, Ab 12.5 ug/ml
# From the text: as §1
# Sm (Smith antigen) [18] = target: T8, Sm (Smith antigen); assay: AtheNA, Ab 12.5 ug/ml
# From the text: as §1
# CH505w020.14D8gp120 = target: T9, CH505w020.14D8gp120; assay: ELISA
# T9 construct: also called CH505w20.14 gp120
# CH0505_CON D7gp120/293i = assay: ELISA
# CH505w030.20D8gp120/293F = target: T10, CH505w030.20D8gp120/293F; assay: ELISA
# T10 construct: also called CH505w30.20 gp120
# CH505.w30.12D8gp120 = target: T11, CH505.w30.12D8gp120; assay: ELISA
# T11 construct: also called CH505w30.12 gp120
# Centromere B [19] = target: T1, Centromere B; assay: AtheNA, Ab 25 ug/ml
# From the text: as §1
# Histones [20] = target: T5, Histones; assay: AtheNA, Ab 25 ug/ml
# From the text: as §1
# RNP (ribonucleoprotein) [21] = target: T6, RNP (ribonucleoprotein); assay: AtheNA, Ab 25 ug/ml
# From the text: as §1
# SSA [22] = target: T7, SSA; assay: AtheNA, Ab 25 ug/ml
# From the text: as §1
# Sm (Smith antigen) [23] = target: T8, Sm (Smith antigen); assay: AtheNA, Ab 25 ug/ml
# From the text: as §1
binder,measurement,setting,value
"CH491 (antibody, V domains shown, also called CH235.7; DH491) VH: QVQLVQSGAAVKRPGASVTISCRASGYTFTTYYIHWVRQAPGQGLELMGWINPRGGRTDYSYRFEDRVSMYRDTSMSIVYMDLRNLKSADTAVYYCVRNVGTSGSLLHYDFWGQGSLVTVSS VL: EIVLTQSPATLSVSPGERVTLSCRASQSVRNNLAWYRQKRGQAPRLLIYGASTRATGIPARFSGSGSGTEFTLTISSMQSEDFAVYYCQQYNNWWTFGQGTKVEIK",EC50 (read off the curve),CH505.TF mutant gp120 M6 [1],~0.2 mg/L
same,LogAUC,CH505w136.B18D8gp120,3.53
same,LogAUC,[2],0
same,LogAUC,CH505.M21D8gp120/293F,0
same,LogAUC,CH505.M5D8gp120293F,10.6
same,LogAUC,CH505.M10D8gp120,10.6
same,LogAUC,CH505.TF mutant gp120 M6 [3],9.21
same,LogAUC,CH505.M9D8gp120/293F,0
same,LogAUC,CH505.M7D8gp120/293F,0
same,LogAUC,CH505.M19D8gp120,6.61
same,LogAUC,CH505.M11D8gp120/293F,6.75
same,LogAUC,CH505.TF mutant gp120 M8,0
same,EC50 (read off the curve),CH505.TF gp120 delta371I,~8 mg/L
same,AtheNA signal,Centromere B [4],54
same,AtheNA signal,Histones [5],59
same,AtheNA signal,RNP (ribonucleoprotein) [6],43
same,AtheNA signal,SSA [7],68
same,AtheNA signal,Sm (Smith antigen) [8],6
same,EC50 (read off the curve),Con S gp120,~0.05 mg/L
same,AtheNA signal,Centromere B [9],26
same,AtheNA signal,Histones [10],26
same,AtheNA signal,RNP (ribonucleoprotein) [11],18
same,AtheNA signal,SSA [12],21
same,AtheNA signal,Sm (Smith antigen) [13],4
same,AtheNA signal,Centromere B [14],34
same,AtheNA signal,Histones [15],34
same,AtheNA signal,RNP (ribonucleoprotein) [16],24
same,AtheNA signal,SSA [17],28
same,AtheNA signal,Sm (Smith antigen) [18],3
same,LogAUC,CH505w020.14D8gp120,9.35
same,LogAUC,CH0505_CON D7gp120/293i,9.64
same,LogAUC,CH505w030.20D8gp120/293F,8.82
same,LogAUC,CH505.w30.12D8gp120,3.89
same,AtheNA signal,Centromere B [19],45
same,AtheNA signal,Histones [20],44
same,AtheNA signal,RNP (ribonucleoprotein) [21],30
same,AtheNA signal,SSA [22],44
same,AtheNA signal,Sm (Smith antigen) [23],4

# From patent US10450368 (DUKE UNIVERSITY, dated 2019)
